The values that follow come from US20070292907A1, “Compositions and method for regulating ubiquitin-specific processing proteases” (priority 2005, published 2007).

Holding throughout (assay): covalent modification by UbVS (immunoblot of UbVS adducts)
(In western blotting, separated proteins are transferred to a membrane and probed.)

The target of one test is T1, UCH37 (Bos taurus, UniProt Q9XSJ0).
T1 construct: UCH37 was present in the reactions as a stoichiometric component of the 19S RP complex; from tissue; host or cells: bovine 19S complex (PA700), gift
T1 sequence (Q9XSJ0 1-328): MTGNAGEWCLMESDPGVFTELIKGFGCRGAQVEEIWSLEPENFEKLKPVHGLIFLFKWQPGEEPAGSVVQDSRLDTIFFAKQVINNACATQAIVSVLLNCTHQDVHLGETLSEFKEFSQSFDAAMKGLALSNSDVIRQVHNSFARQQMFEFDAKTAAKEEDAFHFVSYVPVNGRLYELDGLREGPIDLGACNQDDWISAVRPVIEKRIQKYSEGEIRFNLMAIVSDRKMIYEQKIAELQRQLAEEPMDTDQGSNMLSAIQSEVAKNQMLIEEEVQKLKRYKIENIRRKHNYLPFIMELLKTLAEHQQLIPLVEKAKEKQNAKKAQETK
T1 sequence (A1L5A6 1-407 partner): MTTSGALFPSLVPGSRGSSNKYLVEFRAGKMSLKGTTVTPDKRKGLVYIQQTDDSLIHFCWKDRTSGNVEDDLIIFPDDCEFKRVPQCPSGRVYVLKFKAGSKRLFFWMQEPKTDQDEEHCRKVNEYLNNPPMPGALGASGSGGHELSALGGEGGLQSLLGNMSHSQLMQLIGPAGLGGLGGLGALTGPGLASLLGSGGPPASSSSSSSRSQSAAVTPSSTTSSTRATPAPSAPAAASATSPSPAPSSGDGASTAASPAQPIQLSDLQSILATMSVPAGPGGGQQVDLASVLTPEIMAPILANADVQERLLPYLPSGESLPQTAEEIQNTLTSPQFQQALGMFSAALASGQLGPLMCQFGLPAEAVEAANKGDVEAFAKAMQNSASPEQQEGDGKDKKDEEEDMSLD
In kind it is biochemical, bovine. Particulars: reactions in the presence of 19S RP, relative to the USP14 adduct; FIG. 5C lanes 2 and 4. Here is the method:
Two factors contribute to this observation.
(§1) UbVS was prepared as previously described (Borodovsky et al. (2001) supra). […] UbVS was then added to the sample to give approximately 1:1 stoichiometry with the 19S complex. Incubation was continued for another hour and then stopped by the addition of 2×SDS sample buffer. The reaction mixtures were resolved by 14% SDS-PAGE, transferred to nitrocellulose membrane, and the UbVS adducts were detected with mouse monoclonal anti-ubiquitin antibody (P4D1) (Santa Cruz).

The next test has as its target T2, full-length USP14 (Homo sapiens, UniProt P54578).
T2 construct: 3.5 μM full-length USP14 or USP14-AUBL (91-494) was incubated with or without 157 nM bovine 19S complex (PA700); GST (N); made in house
In kind it is biochemical. Here is the method: (§2) Ubiquitin vinylsulfone (UbVS) is a specific covalent inhibitor of a large subset of deubiquitinating enzymes, and thus can be used as an active site-directed probe for the detection of DUB activity (Borodovsky et al. (2001) supra). In order to examine the effect of proteasome association on the activity of USP14, the purified recombinant USP14 proteins were pre-incubated with or without the 19S RP and then assayed for covalent modification by UbVS.
as §1

The next test addresses T3, USP14-ΔUBL (91-494) (Homo sapiens, UniProt P54578).
T3 construct: 3.5 μM full-length USP14 or USP14-AUBL (91-494) was incubated with or without 157 nM bovine 19S complex (PA700); GST (N); made in house
In kind it is biochemical. Particulars: both in the absence and presence of the 19S regulatory particle; FIG. 5C lanes 1 and 2. Here is the method:
as §2, §1

T2 sequence (P54578 whole entry): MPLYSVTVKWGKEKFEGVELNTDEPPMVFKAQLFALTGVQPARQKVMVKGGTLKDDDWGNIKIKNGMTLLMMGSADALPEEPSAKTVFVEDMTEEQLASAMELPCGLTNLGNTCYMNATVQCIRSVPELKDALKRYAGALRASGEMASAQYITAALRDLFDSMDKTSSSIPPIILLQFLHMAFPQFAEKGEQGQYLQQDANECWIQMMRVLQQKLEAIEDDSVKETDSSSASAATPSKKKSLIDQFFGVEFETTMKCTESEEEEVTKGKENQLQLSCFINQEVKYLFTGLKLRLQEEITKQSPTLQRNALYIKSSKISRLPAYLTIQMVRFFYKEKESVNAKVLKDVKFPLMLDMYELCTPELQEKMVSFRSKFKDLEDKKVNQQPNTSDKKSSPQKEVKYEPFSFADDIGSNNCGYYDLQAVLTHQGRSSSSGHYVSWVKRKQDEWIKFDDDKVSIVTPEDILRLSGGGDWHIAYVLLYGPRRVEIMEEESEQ
T3 sequence (P54578 91-494, stated change not applied): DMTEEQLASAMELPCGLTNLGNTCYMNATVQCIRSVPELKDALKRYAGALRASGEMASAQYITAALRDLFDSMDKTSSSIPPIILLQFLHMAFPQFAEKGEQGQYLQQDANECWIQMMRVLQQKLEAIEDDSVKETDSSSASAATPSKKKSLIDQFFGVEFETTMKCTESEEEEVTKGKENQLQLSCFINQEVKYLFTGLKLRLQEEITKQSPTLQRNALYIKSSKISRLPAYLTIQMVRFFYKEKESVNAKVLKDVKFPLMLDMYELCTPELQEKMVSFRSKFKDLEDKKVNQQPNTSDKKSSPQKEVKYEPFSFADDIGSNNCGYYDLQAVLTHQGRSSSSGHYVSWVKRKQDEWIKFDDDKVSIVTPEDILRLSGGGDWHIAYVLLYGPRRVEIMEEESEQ

Consider Ubiquitin vinylsulfone [UbVS], for which the UCH37-UbVS adduct detected result in the test with UCH37 is recorded as “only a trace amount”. In addition, the USP14-UbVS complex formation entry is “no detectable USP14-UbVS complex formation” with full-length USP14 (full-length USP14 by itself, without 19S RP, FIG. 5C lane 3) and “strong USP14-UbVS band” in the test with full-length USP14 (full-length USP14 with 19S regulatory particle added, FIG. 5C lane 4). Moreover, the “activity toward UbVS” value with USP14-ΔUBL (91-494) is “extremely low activity”.
